B1: MAb4-YTE (antibody, human IgG1, kappa)
heavy: QVQLVQSGAEVKKPGSSVKVSCKASGYAFSSYWMNWVRQAPGQGLEWIGQIYPGDDDTNYNAKFQGRVTITVDKSTTTAYMELSSLRSEDTAVYFCAGSLMVTTGAPFDYWGQGTTVTVSSASTKGPSVFPLAPSSKSTSGGTAALGCLVKDYFPEPVTVSWNSGALTSGVHTFPAVLQSSGLYSLSSVVTVPSSSLGTQTYICNVNHKPSNTKVDKRVEPKSCDKTHTCPPCPAPELLGGPSVFLFPPKPKDTLYITREPEVTCVVVDVSHEDPEVKFNWYVDGVEVHNAKTKPREEQYNSTYRVVSVLTVLHQDWLNGKEYKCKVSNKALPAPIEKTISKAKGQPREPQVYTLPPSREEMTKNQVSLTCLVKGFYPSDIAVEWESNGQPENNYKTTPPVLDSDGSFFLYSKLTVDKSRWQQGNVFSCSVMHEALHNHYTQKSLSLSPG
light: DIQMTQSPSSLSASVGDRVTITCKASQDVGIAVAWYQQKPGKAPKFLIYYASHRGWGVPDRFSGSGSGTDFTLTISSLQPEDFATYFCQQYRSYPLTFGQGTKLEIKRTVAAPSVFIFPPSDEQLKSGTASVVCLLNNFYPREAKVQWKVDNALQSGNSQESVTEQDSKDSTYSLSSTLTLSKADYEKHKVYACEVTHQGLSSPVTKSFNRGEC
notes: Humanised full-length human IgG1 kappa; also called Mab-YTE
B2: MAb4-LS (antibody, human IgG1, kappa)
heavy: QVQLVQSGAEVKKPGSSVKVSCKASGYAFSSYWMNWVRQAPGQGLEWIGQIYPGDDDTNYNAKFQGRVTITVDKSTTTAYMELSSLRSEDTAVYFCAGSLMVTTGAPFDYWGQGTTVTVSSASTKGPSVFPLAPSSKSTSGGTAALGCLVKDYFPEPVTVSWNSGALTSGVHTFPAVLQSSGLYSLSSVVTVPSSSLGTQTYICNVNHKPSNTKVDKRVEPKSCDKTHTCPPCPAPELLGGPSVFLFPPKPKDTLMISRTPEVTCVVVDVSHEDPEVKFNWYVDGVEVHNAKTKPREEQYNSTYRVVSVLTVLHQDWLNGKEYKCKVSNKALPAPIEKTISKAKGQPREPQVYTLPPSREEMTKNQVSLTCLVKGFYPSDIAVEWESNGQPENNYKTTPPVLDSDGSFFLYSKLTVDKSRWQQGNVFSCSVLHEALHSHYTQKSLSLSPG
light: B1 light
notes: Humanised full-length human IgG1 kappa

What was measured:
[1] = target: T1, 人类血浆激肽释放酶 (human plasma kallikrein) (human, UniProt P03952 20-390; P03952 391-638); test: SPR, 37 C
T1 construct: The active enzyme is a cleaved two-chain form; also called pkal; pKal

[2] = target: T1, 人类血浆激肽释放酶 (human plasma kallikrein); test: SPR, 37 C, pH 7.4 or pH 6.0
[3] = target: T1, 人类血浆激肽释放酶 (human plasma kallikrein); test: SPR, 37 C, pH 7.4
[4] = target: T1, 人类血浆激肽释放酶 (human plasma kallikrein); test: SPR, 37 C, pH 6.0

T1 sequence (P03952 20-390 S143N limits assumed, chain 1 of 2): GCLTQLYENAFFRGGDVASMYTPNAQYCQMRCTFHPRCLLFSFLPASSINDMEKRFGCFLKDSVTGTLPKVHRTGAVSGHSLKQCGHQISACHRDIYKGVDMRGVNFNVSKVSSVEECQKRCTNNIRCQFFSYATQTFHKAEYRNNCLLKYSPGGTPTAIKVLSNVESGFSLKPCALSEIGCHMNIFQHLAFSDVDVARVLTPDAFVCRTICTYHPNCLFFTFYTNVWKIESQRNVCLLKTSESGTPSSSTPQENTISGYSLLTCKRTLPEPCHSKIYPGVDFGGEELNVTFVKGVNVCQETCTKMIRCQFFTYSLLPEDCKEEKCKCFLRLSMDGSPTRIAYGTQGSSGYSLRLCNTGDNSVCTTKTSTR
T1 sequence (P03952 391-638 limits assumed, chain 2 of 2): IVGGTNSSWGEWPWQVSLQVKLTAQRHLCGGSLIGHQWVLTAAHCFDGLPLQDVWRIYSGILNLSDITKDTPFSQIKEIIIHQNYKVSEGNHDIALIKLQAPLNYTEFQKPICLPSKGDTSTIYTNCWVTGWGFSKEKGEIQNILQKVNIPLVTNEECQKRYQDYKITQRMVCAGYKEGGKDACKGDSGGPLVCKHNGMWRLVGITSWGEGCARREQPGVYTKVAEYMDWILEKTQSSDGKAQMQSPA

| Binder | fold stronger binding affinity than DX-2930 [1] | fold affinity for plasma kallikrein over prekallikrein [2] | Kd [3] [nM] | Kd [4] [nM] |
| --- | --- | --- | --- | --- |
| B1 | > 5 倍 | > 1000 倍 | 1.1 | 0.9 |
| B2 | > 5 倍 | > 1000 倍 | 2.2 | 1.2 |
